{"source": "patent US20220119446A1", "about": "“BIOMARKERS AND TREATMENT OF NEURONAL INJURY AND NEURODEGENERATION” (Board of Supervisons of Louisiana State University and …, priority 2018, published 2022)", "molecules": {"B1": {"name": "Wnt3a: recombinant protein, R&D systems 5036-WN; canonical Wnt ligand (protein, UniProt P56704 19-352, looked up)", "Protein Wnt-3a": "SYPIWWSLAVGPQYSSLGSQPILCASIPGLVPKQLRFCRNYVEIMPSVAEGIKIGIQECQHQFRGRRWNCTTVHDSLAIFGPVLDKATRESAFVHAIASAGVAFAVTRSCAEGTAAICGCSSRHQGSPGKGWKWGGCSEDIEFGGMVSREFADARENRPDARSAMNRHNNEAGRQAIASHMHLKCKCHGLSGSCEVKTCWWSQPDFRAIGDFLKDKYDSASEMVVEKHRESRGWVETLRPRYTYFKVPTERDLVYYEASPNFCEPNPETGSFGTRDRTCNVSSHGIDGCDLLCCGRGHNARAERRREKCRCVFHWCCYVSCQECTRVYDVHTCK"}}, "system": "β-catenin", "test": "TOP Flash/FOP flash luciferase reporter in hpRPE cells", "format": "cell-based, human", "conditions": "hpRPE cells undergoing UOS+/−NPD1", "source_text": "We tested whether or not Wnt5a activates […] using TOP Flash/FOP flash reporter system in hpRPE cells undergoing UOS+/−NPD1 (FIG. 1g).\nExcept TOP/FOP flash, the Luciferase activity can be standardized using a construct expressing GFP constitutively under CMV virus promoter. To assess luciferase activity, cell lysates can be obtained using Passive Lysis Buffer (Promega, Madison, Wis.) and mixed with a luciferase assay reagent (Promegam Madison, Wis.). Chemiluminescence produced by luciferase and fluorescence from GFP can be detected using Appliscan 2.3. Data can be analyzed using SkanIt 2.3 (Thermo Fisher Scientific, Waltham, Mass.).\nExcept TOP/FOP flash, the Luciferase activity was standardized using a construct expressing GFP constitutively under CMV virus promoter. To assess luciferase activity, cell lysates were obtained using Passive Lysis Buffer (Promega) and mixed with a luciferase assay reagent (Promega). Chemiluminescence produced by luciferase and fluorescence from GFP was detected using Appliscan 2.3. Data were analyzed using SkanIt 2.3 (Thermo Fisher Scientific)."}
{"molecule": "B1", "values": [{"measurement": "β-catenin activity (luciferase)", "result": "rose almost twice"}]}
